Test results taken from article PMC11480844.

B1: H2-Kb / B10 (parent)
chain 1: GQQVQQSPASLVLQEGENAELQCNFSSTATRLQWFYQRPGGSLVSLLSNPSGTKHTGRLTSTTVTKERRGSLHISSSQITDSGTYLCAPGGSNAKLTFGKGTKLSVKS
chain 2: DPKIIQKPKYLVAVTGSEKILICEQYLGHNAMYWYRQSAKKPLEFMFSYSYQKLMDNQTASSRFQPQSSKKNHLDLQITALKPDDSATYFCASSLRGGNNQAPLFGEGTRLSVL
chain 3: not shown
chain 4: IQKTPQIQVYSRHPPENGKPNILNCYVTQFHPPHIEIQMLKNGKKIPKVEMSDMSFSKDWSFYILAHTEFTPTETDTYACRVKHDSMAEPKTVYWDRDM
chain 5: SIINFEKL
B2: H2-Kb / B2 (parent)
chain 1: GEQVEQRPPHLSVREGDSAVIICTYTDPNSYYFFWYKQEPGAGLQLLMKVFSSTEINEGQGFTVLLNKKDKQLSLNLTAAHPGDSAVYFCAVSQMSNYNVLYFGSGTKLTVEP
chain 2: EAAVTQSPRNKVAVTGGKVTLSCNQTNNHNNMYWYRQDTGHGLRLIHYSYGAGSTEKGDIPDGYKASRPSQENFSLILELATPSQTSVYFCASGTGGSGQLYFGEGSKLTVL
chain 3: not shown
chain 4: B1 chain 4
chain 5: SIINFEKL

Variants of: B1
Assay: % of reporter cells activated (NFAT-GFP), raw
Details: with B10; scale: % of reporter cells activated
Note: test concentration or dose not given here.

Ratio to parent of substitutions, site by site:
chain 5 E6: L 1.28 | N 0.915 | R 1.9 | K 1.31 | M 1.2 | C 1.72 | I 0.763 | A 0.973 | S 1.65 | F 1.74 | D 1.26
chain 5 S1: K 1.53 | F 0.678 | I 1.1 | G 0.831 | T 1.1
chain 5 I2: K 1.71 | Q 1.43 | R 1.05 | P 1 | D 1.32 | W 0.82
chain 5 F5: L 2.41 | T 0.847 | Q 1.64 | P 1.86 | N 2.03 | Y 1.41
chain 5 K7: E 1.37 | G 0.898 | T 1.22 | D 1.09 | M 2.2 | Y 0.995 | S 1.39 | Q 0.636
chain 5 I3: P 0.949 | V 1.12 | E 1.13 | S 1.22 | M 1.2 | Q 0.61 | R 0.903 | A 0.702 | K 1.47 | Y 1.97 | D 0.864
chain 5 N4: I 1.8 | C 2.85 | H 1.88 | G 1.28 | E 1.19 | P 1.81 | M 0.932 | A 1.86
chain 5 L8: V 0.51 | K 1.12 | P 1.39 | A 1.07 | N 0.915 | G 0.683 | I 0.769

Variants of: B2
Assay: % of reporter cells activated (NFAT-GFP), raw
Details: with B2; scale: % of reporter cells activated

Ratio to parent of substitutions, site by site:
chain 5 I2: Q 0.573 | L 4.69 | Y 0.87 | H 0.93 | V 1.91 | E 0.654 | W 0.768 | D 1 | P 0.892 | S 0.714 | F 2.06 | C 1.2 | A 1.58 | M 2.66 | T 1.68 | R 1.36 | N 0.589 | K 1.18 | G 0.876
chain 5 E6: C 0.811 | W 0.6 | M 0.946 | I 0.67 | D 0.6 | V 0.422 | Q 0.724 | F 0.584 | Y 0.697 | K 1.8 | P 0.741 | S 0.751 | R 0.573 | N 0.535 | T 0.746 | G 1.06 | A 0.557 | L 0.53 | H 0.497
chain 5 K7: W 7.51 | N 1.84 | D 3.15 | A 4.46 | H 4.08 | E 1.49 | C 2.46 | M 2.53 | T 1.99 | L 2.05 | S 3.71 | V 12.4 | Q 1.96 | F 4.64 | I 1.95 | P 3.7 | Y 2.46 | R 1.97 | G 7.31
chain 5 F5: C 3.54 | D 1.06 | R 0.476 | L 3.33 | W 0.519 | K 0.741 | S 0.73 | A 1.27 | I 1.82 | H 12.1 | V 0.346 | Q 1.75 | E 0.573 | Y 7.49 | G 0.438 | T 0.632 | M 1.38 | P 0.703 | N 1.95
chain 5 L8: F 8.42 | H 2.32 | G 0.849 | D 0.914 | M 3.42 | K 1.17 | A 8.62 | C 2.06 | I 0.708 | E 0.551
chain 5 I3: H 0.676 | A 0.741 | E 0.432 | P 0.692 | R 0.335 | G 0.568 | L 0.724 | F 0.324 | N 0.389 | C 0.795 | Y 0.476 | T 0.4 | Q 0.524 | V 0.449 | M 0.659 | K 0.427 | D 0.481 | S 0.4 | W 0.578
